{"source": "paper PMC6370554", "target": "biotinylated histone H3K27me3 (21-44) peptide (UniProt P68431)", "experiment": "ELISA", "data": [{"substance": "Pcαα fusion protein (tandem human CBX8 PCDs, mCherry, VP64) (from UniProt Q9HC52 1-62; Q9HC52 1-62) (designed binder)", "values": [{"measurement": "HRP ELISA signal:background ratio (H3K27me3 over unmodified H3)", "result": 6}]}]}
